According to US8455448B2, “Myostatin isoform” (Myostin Therapeutics Pty Ltd, priority 2004, dated 2013):

Target: T1, myostatin (Bos taurus, UniProt O18836)
T1 sequence (O18836 267-375): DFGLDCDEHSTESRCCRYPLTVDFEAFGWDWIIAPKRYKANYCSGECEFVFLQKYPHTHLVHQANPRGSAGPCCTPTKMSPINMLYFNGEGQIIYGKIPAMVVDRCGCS
Assay: MSV/canonical myostatin competition in C2C12 proliferation assay
Format: cell-based, bovine
Settings: 1.5 μg/ml Mstn
Protocol: Competition of roMSV65 with canonical myostatin was carried out with C2C12 murine myoblasts. Myoblasts were seeded in 96-well tissue culture plates (Nunc, Roskilde, Denmark) at a cell density of 1000 cells per well in 200 μl of Dulbecco's modified Eagle's medium (DMEM, Invitrogen, California) supplemented with foetal bovine serum (FBS, 10% v/v, Invitrogen), penicillin (1×10^5 IU/l, Sigma, St Louis, Mo., USA) and streptomycin (100 mg/l, Sigma) buffered with NaHCO3 containing phenol red (7.22 nmol/l) as a pH indicator, and incubated overnight at 37° C. with 5% CO2. The medium was replaced with DMEM 10% FBS test medium containing no added protein, 1.5 or 2.5 μg/ml recombinant myostatin alone and with combination of 1, 2, 4, 10, 20 molar ratio of roMSV65, and the same amounts of roMSV65 without myostatin in a semi-random arrangement of eight replicates (n=8) for each test medium. Plates were incubated at 37° C. with 5% CO2 for 72 hours, and then the medium was removed. […] The plates were gently shaken and the absorbance was measured at 655 nm using a microplate photometer (VersaMax, Molecular Devices, CA).
Competition of roMSV47 with canonical myostatin was carried out with C2C12 murine myoblasts. […] The plates were gently shaken and the absorbance was measured at 655 nm using a microplate photometer (VersaMax, Molecular Devices, CA). […]

Molecule: roMSV47: 47 amino acid C-terminal mature ovine MSV fragment (SEQ ID NO: 50), recombinant from E. coli (IIFLEVYIQFCSILGEAVFKRQSKSIHFCQNFKIIACLCNTAAFRMK; Ovis aries)
- restoring of myostatin inhibited proliferation (1:10 molar ratio of myostatin to MSV, 69 h, FIG. 11): ineffective at restoring proliferation

B1: roMSV65: 65 amino acid C-terminal peptide of ovine MSV (SEQ ID NO: 49) expressed as recombinant protein in E. coli (protein)
chain: VHFYTPPYGQWIFHKERKIIFLEVYIQFCSILGEAVFKRQSKSIHFCQNFKIIACLCNTAAFRMK
modifications: Ovis aries
- overcoming myostatin-induced inhibition of proliferation (48 h, FIG. 9): overcame myostatin-induced inhibition of proliferation
